Measured values as given in patent publication US10098865B2, “Multi-arm polymeric prodrug conjugates of taxane-based compounds” (Nektar Therapeutics, priority 2010, dated 2018).

Assay: Maximum Tolerated Dose (MTD) study of d9-docetaxel conjugates in athymic mice
Type: in vivo, female athymic nu/nu mice
Conditions: for MTD (maximum tolerated dose), estimated: athymic nu/nu mice, qwk×3, iv, dose refers to d9-docetaxel content; for Body Weight Nadir / Body Weight Nadir (day): day of nadir / Treatment-Related Deaths: female athymic nu/nu mice, qwk x 3
Experimental: MTD for 4-arm-PEG20K-CM-glycine-d9-docetaxel and 4-arm-PEG20K-BA-d9-docetaxel were determined in female athymic nu/nu mice using standard methods. For all test compounds, the dose refers to the d9-docetaxel content. d9-Docetaxel solutions were prepared in D5W containing 7.5% Tween 80:7.5% ethanol. PEG-d9-docetaxel conjugates were prepared in D5W. The administration volume for all test articles was 10 mL/kg. Mice were observed daily for clinical signs and body weights were recorded on days 1-5 and then biweekly until the end of study. Any individual animal with a single observation of greater than 30% body weight loss or three consecutive measurements of greater than 25% body weight loss was euthanized. For any group with two measurements of mean body weight loss of greater than 20%, dosing was stopped and recovery was allowed. Within a group with greater than 20% mean weight loss, individual animals greater than 30% body weight loss were euthanized. Compound dosing was terminated for any group in which mean weight loss exceeded 20% or >10% of animals died. Moribund animals were euthanized and all animals were euthanized at end of study.

[1] = 7.5 mg/kg (d9-docetaxel content) iv
[2] = 30 mg/kg (d9-docetaxel content) iv
[3] = N=5, 7.5 mg/kg (d9-docetaxel content) iv
[4] = N=5, 15 mg/kg (d9-docetaxel content) iv
[5] = N=5, 30 mg/kg (d9-docetaxel content) iv
[6] = 15 mg/kg (d9-docetaxel content) iv

Row | Compound | MTD (maximum tolerated dose), estimated | Body Weight Nadir [1] | Body Weight Nadir (day): day of nadir [1] | Body Weight Nadir [2] | Body Weight Nadir (day): day of nadir [2] | Treatment-Related Deaths [3] | Treatment-Related Deaths [4] | Treatment-Related Deaths [5] | Body Weight Nadir (25 mg/kg iv) | Body Weight Nadir (day): day of nadir (25 mg/kg iv) | Treatment-Related Deaths (N=5, 25 mg/kg iv) | Body Weight Nadir [6] | Body Weight Nadir (day): day of nadir [6]
1 | 4-ARM-PEG20K-Butanoate-Linked d9-Docetaxel Conjugate [4ARM-PEG20K-BA-d9-DOC] | 20 mg/kg | −0.6% | 2 days | −21.0% | 21 days | 0 | 0 | 0 | – | – | – | – | –
2 | [2H]C([2H])([2H])C(OC(=O)N[C@@H](c1ccccc1)[C@@H](O)C(=O)O[C@H]1C[C@@]2(O)[C@@H](OC(=O)c3ccccc3)C3C(C)(C(=O)[C@H](O)C(=C1C)C2(C)C)[C@@H](O)CC1OC[C@]13OC(C)=O)(C([2H])([2H])[2H])C([2H])([2H])[2H] (stereo partly drawn) [Docetaxel-d9, d9-Docetaxel] | – | – | – | – | – | – | – | – | −17.7% | 21 days | 0 | – | –
3 | 4-ARM-PEG20K-Glycinate-Linked d9-Docetaxel Conjugate [4ARM-PEG20K-CM-GLY-d9-DOC] | 20 mg/kg | −1.6% | 2 days | −25.2% | 21 days | 0 | 0 | 0 | – | – | – | −4.2% | 10 days
